Experimental data published in patent US20240101668A1 (WUGEN, published 2024).
Changes are numbered by the printed parent chain.

B1: Polypeptide No. 44 (scFv, V domains shown)
VH: EVQLLESGGGLVQPGGSLRLSCAASGFTFSSYAMHWVRQAPGKGLEWVADISGSGGLTYYADSVKGRFTISRDNSKNTLYLQMNSLRAEDTAVYYCAREGDQYSSSSFFDYWGQGTLVTVSS
VL: not shown
notes: scFv
B2: Polypeptide No. 84 (scFv, V domains shown)
VH: QVQLVQSGAEVKKPGASVKVSCKASGGTFSNYAISWVRQAPGQGLEWMGWINPNSGGTNYAQKFQGRVTMTRDTSTSTVYMELSSLRSEDTAVYYCARVGYYDSSGGGMDVWGQGTTVTVSS
VL: DIQMTQSPSSLSASVGDRVTITCRASQSISSWLAWYQQKPGKAPKLLIYDASNLETGVPSRFSGSGSGTDFTLTISSLQPEDFATYYCLQTHSFPLTFGPGTKVDIKR
notes: scFv
B3: Polypeptide No. 70 (scFv, V domains shown)
VH: EVQLLESGGGLVQPGGSLRLSCAASGMSVTSNHMSWVRQAPGKGLEWVSSIYPDGKTYYADSVKGRFTISRDNSKNTLYLQMNSLRAEDTAVYYCARDEEDWFDPWGQGTLVTVSS
VL: DIQMTQSPSSLSASVGDRVTITCQASQSISNWLAWYQQKPGKAPKLLIYAASTLQSGVPSRFSGSGSGTDFTLTISSLQPEDFATYYCQQSYSTPWTFGQGTKVEIKR
notes: scFv
B4: Polypeptide No. 78 (scFv, V domains shown)
VH: QVQLVQSGAEVKKPGSSVKVSCKASGGTFSRYPFSWVRQAPGQGLEWMGWMNPNNGDTGYAQKFQGRVTITADESTSTAYMELSSLRSEDTAVYYCARGDYPYMDVWGKGTTVTVSS
VL: B3 VL with S28D, W32Y, A34N, A50D, T53N, Q55E, S56T, T94I, W96Y, V104L
notes: scFv
B5: Polypeptide No. 45 (scFv, V domains shown)
VH: EVQLVESGGGLVKPGGSLRLSCAASGFTFDEFGMNWVRQAPGKGLEWISYISGDSGYTNCADSVKGRFTISRDDSKNTLYLQMNSLKTEDTAVYYCAAGYGGYYFDYWGQGTLVTVSS
VL: B3 VL with S28D, S30D, N31I, W32Y, A34N, Q55E, W96P, Q100G
notes: scFv
B6: Polypeptide No. 80 (scFv, V domains shown)
VH: QVQLVQSGAEVKKPGASVKVSCKASGFTFTSYYMHWVRQAPGQGLEWMGWMNPNSGNTGYAQRFQGRVTMTRDTSTSTVYMELSSLRSEDTAVYYCARGHSRTDYGMDVWGQGTTVTVSS
VL: B3 VL with Q24R, N31S, A50D, A51T, T53S, S91G, W96L
notes: scFv
B7: Polypeptide No. 71 (scFv, V domains shown)
VH: EVQLLESGGGLVQPGGSLRLSCAASGFTFSNHYMSWVRQAPGKGLEWVAVIWPDGSKEYYADSVKGRFTISRDNSKNTLYLQMNSLRAEDTAVYYCAREDYYGSGMDYWGQGTLVTVSS
VL: B3 VL with S28D, W32Y, A34N, A50G, S91Y, Y92D, T94Y, W96P, Q100G
notes: scFv
B8: Polypeptide No. 74 (scFv, V domains shown)
VH: QVQLVQSGAEVKKPGSSVKVSCKASGYTFTKYEINWVRQAPGQGLEWMGGIIPIFGTANYAQKFQGRVTITADESTSTAYMELSSLRSEDTAVYYCARGSGWYTPLFDYWGQGTLVTVSS
VL: B3 VL with Q24R, S28G, W32N, A34N, A50D, T53Y, Q55E, S56T, T94A, W96L
notes: scFv
B9: Polypeptide No. 81 (scFv, V domains shown)
VH: EVQLLESGGGLVQPGGSLRLSCAASGFTFSDHYMSWVRQAPGKGLEWVSIIYPDGKTYYADSVKGRFTISRDNSKNTLYLQMNSLRAEDTAVYYCAREGSYGDYDGMDVWGQGTTVTVSS
VL: B3 VL with S28D, W32Y, A34N, A50G, V104L
notes: scFv
B10: Polypeptide No. 86 (scFv, V domains shown)
VH: QVQLVQSGAEVKKPGASVKVSCKASGYTFTTYGISWVRQAPGQGLEWMGWINPNSGDTNYAQKFQGRVTMTRDTSTSTVYMELSSLRSEDTAVYYCARLTTATDSFDLWGRGTLVTVSS
VL: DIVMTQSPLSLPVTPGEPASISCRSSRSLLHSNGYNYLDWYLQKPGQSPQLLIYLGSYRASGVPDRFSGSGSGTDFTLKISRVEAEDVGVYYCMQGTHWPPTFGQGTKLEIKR
notes: scFv
B11: Polypeptide No. 72 (scFv, V domains shown)
VH: QVQLVQSGAEVKKPGASVKVSCKASGGTFSNYAISWVRQAPGQGLEWMGWISAYNGNSDYAQNLQGRVTMTRDTSTSTVYMELSSLRSEDTAVYYCAIGDYFDYWGQGTLVTVSS
VL: DIQMTQSPSSLSASVGDRVTITCQASEDINKYLNWYQQKPGKAPKLLIYDASNLETGVPSRFSGSGSGTDFTLTISSLQPEDFATYYCQQANSFPLTFGQGTKVEIKR
notes: scFv
B12: Polypeptide No. 76 (scFv, V domains shown)
VH: QVQLVQSGAEVKKPGASVKVSCKASGYTFTTYYMHWVRQAPGQGLEWMGIINVSAGTTSYAQKFQGRVTMTRDTSTSTVYMELSSLRSEDTAVYYCAKEPYPHQSGWFFDYWGQGTLVTVSS
VL: B11 VL with E27Q, K31N, Q100G
notes: scFv
B13: Polypeptide No. 46 (scFv, V domains shown)
VH: QVQLVQSGAEVKKPGASVKVSCKASGYTFTSYYMHWVRQAPGQGLEWMGMINPSAGSTSYAQKFQGRVTMTRDTSTSTVYMELSSLRSEDTAVYYCASVDSSGWYAPFDYWGQGTLVTVSS
VL: B11 VL with Q24R, E27Q, D28S, N30S, K31T, L96P, Q100G
notes: scFv
B14: Polypeptide No. 43 (scFv, V domains shown)
VH: QVQLVQSGAEVKKPGASVKVSCKASGYTFTNYYMHWVRQAPGQGLEWLGWISPYSGDTKYAQTLQGRVTMTRDTSTSTVYMELSSLRSEDTAVYYCARESMDRLDYWGQGTLVTVSS
VL: DIQMTQSPSSLSASVGDRVTITCRASQSISTYLNWYQQKPGKAPKLLIYDASNLETGVPSRFSGSGSGTDFTLTISSLQPEDFATYYCQQSYSTPVLTFGGGTKVEIKR
notes: scFv
B15: Polypeptide No. 88 (scFv, V domains shown)
VH: QVQLVQSGAEVKKPGASVKVSCKASGYTFTGYHIHWVRQAPGQGLEWMGRINPNSGGTDYAQKFQGRVTMTRDTSTSTVYMELSSLRSEDTAVYYCARETYSGSYEESFDYWGQGTLVTVSS
VL: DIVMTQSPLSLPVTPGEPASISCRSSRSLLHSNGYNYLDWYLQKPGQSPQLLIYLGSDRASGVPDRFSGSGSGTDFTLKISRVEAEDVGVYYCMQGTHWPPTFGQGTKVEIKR
notes: scFv
B16: Polypeptide No. 82 (scFv, V domains shown)
VH: QVQLVQSGAEVKKPGSSVKVSCKASGGTFSNYDISWVRQAPGQGLEWMGGIIPIFGTANYAQKFQGRVTITADESTSTAYMELSSLRSEDTAVYYCAREAEEGGWFDPWGQGTLVTVSS
VL: EIVMTQSPATLSVSPGERATLSCRASQSVSSYLAWYQQKPGQAPRLLIYGASTRATGIPARFSGSGSGTEFTLTISSLQSEDFAVYYCQQYAFSPITFGQGTKLEIKR
notes: scFv

What follows are binders tested against T1, huCLL1-K244-Avi-Tev-His (human, UniProt Q5QGZ9 65-265) (assay: BLI).
T1 construct: extracellular domain
T1 sequence (looked up): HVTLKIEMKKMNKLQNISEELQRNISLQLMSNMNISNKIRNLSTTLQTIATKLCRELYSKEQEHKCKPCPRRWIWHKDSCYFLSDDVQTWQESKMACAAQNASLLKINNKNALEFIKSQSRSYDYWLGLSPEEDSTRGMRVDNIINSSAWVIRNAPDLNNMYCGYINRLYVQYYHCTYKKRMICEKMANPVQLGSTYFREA
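Further: Bio-layer interferometry with scFvs captured on biosensors via anti-V5 antibody, exposed 2 min to CLL-1 K244 or Q244 protein, 5 min dissociation, scored as binding, no binding or ambiguous.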
Experimental: (§1) Discovered scFvs were analyzed for binding to huCD33-R69-His or huCD33-G69-Fc recombinant proteins (for anti-CD33 scFvs; for CLL-1 scFvs, huCLL1-K244-Avi-Tev-His or huCLL1-Q244-Avi-Tev-His were used; for FLT3, huFLT3-T227-His or huFLT3-M227-Fc were used) using BLI on a ForteBio Octet HTX instrument. Streptavidin-coated biosensors were loaded with biotinylated anti-V5 tag monoclonal antibody for 5 min and were then quenched and blocked with 20 μM amine-PEG2-Biotin for 5 min. scFvs were captured on biosensors from scFv clone periplasmic extracts. huCD33 (or huCLL-1, or huFLT3) proteins were then associated with the captured scFvs for 2 minutes, followed by dissociation with buffer (1×HBST [10 mM HEPES pH 7.4, 150 mM NaCl, 0.05% Tween-20], 1 g/L BSA) for 5 minutes. […] Data was fitted with 1:1 Langmuir equation and off-rate values were reported.
(§2) Analogous methods were used to assess selectivity of binding of polypeptides to CLL-1 K244 or CLL-1 Q244.

Binder	binding result
B1	binds
B2	no binding
B3	no binding
B4	no binding
B5	binds
B6	no binding
B7	no binding
B8	no binding
B9	no binding
B10	no binding
B11	no binding
B12	no binding
B13	binds
B14	binds
B15	no binding
B16	no binding

These binders were tested against T2, huCLL1-Q244-Avi-Tev-His (human, UniProt Q5QGZ9 65-265) (assay: BLI).
T2 construct: extracellular domain; also called CLL-1 K244Q
T2 sequence (looked up): T1 sequence (looked up) with K180Q
Experimental: as §1, §2

Binder	binding result
B1	no binding
B2	binds
B3	binds
B4	binds
B5	no binding
B6	binds
B7	binds
B8	binds
B9	binds
B10	binds
B11	binds
B12	binds
B13	no binding
B14	no binding
B15	binds
B16	binds
